Consider one molecule from US20210108176A1 (IMPERIAL COLLEGE INNOVATIONS, published 2021).

For this assay, the target named is T1, EZH2 (UniProt Q15910 1-746, limits assumed).
T1 construct: Endogenous protein immunoprecipitated from U266 cell chromatin; also called polycomb complex methyl-transferase EZH2
Description: ChIP-reChIP qPCR in U266 cells (IP against RARalpha, then EZH2). Here is the method: Chromatin immunoprecipitation (ChIP) combined with real-time quantitative polymerase chain reaction (ChIP-RQ-PCR) was performed for anti-H3K4me3, anti-H3K27me3, anti-RNA polymerase II CTD phospho Ser2, anti-RNA polymerase II CTD phospho Ser5, anti-EZH2, anti-RARα and control IgG as previously described²⁵. For Re-ChIP assays, the wash and chromatin elution steps of the first IP were performed with protease inhibitor-containing buffers and the first elution was performed by incubating the magnetic beads in 10 mM DTT/TE for 30 min at 37° C. The eluate of the first IP was diluted at least 20× in ChIP dilution buffer, followed by a second IP according to the same protocol as above. Expression of immunoprecipitated DNA was calculated, either relative to input DNA or DNA immunoprecipitated by control IgG antibody, using the ΔΔCT method.

T1 sequence (Q15910 whole entry): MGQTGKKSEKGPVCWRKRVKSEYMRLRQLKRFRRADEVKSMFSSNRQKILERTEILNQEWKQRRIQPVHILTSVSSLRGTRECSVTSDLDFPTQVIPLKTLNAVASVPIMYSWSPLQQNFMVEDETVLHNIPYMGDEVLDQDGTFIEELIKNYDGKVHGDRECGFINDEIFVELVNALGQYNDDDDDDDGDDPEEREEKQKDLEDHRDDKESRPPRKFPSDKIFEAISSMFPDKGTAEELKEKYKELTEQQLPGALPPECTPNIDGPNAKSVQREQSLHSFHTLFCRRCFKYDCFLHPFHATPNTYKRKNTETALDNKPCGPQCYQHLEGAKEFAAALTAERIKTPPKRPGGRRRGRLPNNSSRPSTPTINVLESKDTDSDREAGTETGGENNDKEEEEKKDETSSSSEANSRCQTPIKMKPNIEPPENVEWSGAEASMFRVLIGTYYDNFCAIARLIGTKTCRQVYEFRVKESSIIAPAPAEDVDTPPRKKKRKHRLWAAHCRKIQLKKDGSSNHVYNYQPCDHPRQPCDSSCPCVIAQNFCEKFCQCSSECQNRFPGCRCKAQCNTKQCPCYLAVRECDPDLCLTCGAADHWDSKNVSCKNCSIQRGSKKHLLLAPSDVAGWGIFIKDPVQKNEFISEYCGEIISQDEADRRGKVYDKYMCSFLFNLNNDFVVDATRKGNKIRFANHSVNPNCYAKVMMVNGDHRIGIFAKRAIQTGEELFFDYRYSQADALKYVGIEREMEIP

B1: RARalpha (receptor, UniProt P10276 1-462, looked up)
chain: MASNSSSCPTPGGGHLNGYPVPPYAFFFPPMLGGLSPPGALTTLQHQLPVSGYSTPSPATIETQSSSSEEIVPSPPSPPPLPRIYKPCFVCQDKSSGYHYGVSACEGCKGFFRRSIQKNMVYTCHRDKNCIINKVTRNRCQYCRLQKCFEVGMSKESVRNDRNKKKKEVPKPECSESYTLTPEVGELIEKVRKAHQETFPALCQLGKYTTNNSSEQRVSLDIDLWDKFSELSTKCIIKTVEFAKQLPGFTTLTIADQITLLKAACLDILILRICTRYTPEQDTMTFSDGLTLNRTQMHNAGFGPLTDLVFAFANQLLPLEMDDAETGLLSAICLICGDRQDLEQPDRVDMLQEPLLEALKVYVRKRRPSRPHMFPKMLMKITDLRSISAKGAERVITLKMEIPGSMPPLIQEMLENSEGLDTLSGQPGGGGRDGGGLAPPPGSCSPSLSPSSNRSSPATHSP
notes: Endogenous protein immunoprecipitated from U266 cell chromatin
Regarding B1, the binding result is recorded as “binds”.
